Laboratory results as given in the RNAGym collection of RNA variant scans (doi:10.1021/acssynbio.7b00057).

B1: Pistol ribozyme (parent)
chain: GGGUCGUUGUUCCAUAAUCGCGUGGAUAUGGCACGCAAGUUUCUACCGGGCACCGUAAAUGUCCGACUGGAGCCGUUCGGGCGGCUAUAAACAGACCUCAGGCCCGAAGCGUGGCGGCACCUGCCGCCGGUGGUAAAAAAGAUCGGAAGAGCACACGUCU

Variants of: B1
Assay: aptazyme ON/OFF ratio, guanine; higher = stronger switching; co-transcriptional cleavage with and without guanine

Compared with U7C U8G U10G U11C C12G C13A, U7A U8A U11A C12U C13G is higher in “aptazyme ON/OFF ratio” value: 1.16 for the first, 1.28 for the second.

Going from U7A U8G G9C U10A U11G C12G C13U to U7C U8A U10A U11C, the “aptazyme ON/OFF ratio” value falls from 1.25 to 1.05.

Compared with U7G G9A U10G U11A C12U C13U, U7G U8C U10G U11G C12G C13G is higher in “aptazyme ON/OFF ratio” value: 1.07 for the first, 1.08 for the second.

Going from U7C U8C G9C U10G U11G C13G to U7A U8A G9U U11C C13G, the “aptazyme ON/OFF ratio” value falls from 1.08 to 1.05.

Going from U7C G9C U10A U11A C12G C13U to U7G U8C U11A C12A C13A, the “aptazyme ON/OFF ratio” value rises from 1.07 to 1.23.

First: U7C U8G G9U C12U C13A
Second: U7C U8G G9U U10C U11C C12U
The “aptazyme ON/OFF ratio” value of the first is higher: 1.31 for the first, 1.1 for the second.

Going from U7C U8C U11G to U7C U8G G9U U10C U11A C12A, the “aptazyme ON/OFF ratio” value rises from 1.31 to 1.43.

First: G9C U10A U11G C12U C13G
Second: U8C U10C U11A C12G
The “aptazyme ON/OFF ratio” value of the first is lower: 1.16 for the first, 1.35 for the second.

First: U7G G9U U10G U11G C12A C13U
Second: U7A U8G U10A U11C C12U C13U
The “aptazyme ON/OFF ratio” value of the first is lower: 1.19 for the first, 1.33 for the second.

First: U7C U8G U10A C13G
Second: U8A G9C U10A U11A C12G C13A
The “aptazyme ON/OFF ratio” value of the first is higher: 1.15 for the first, 1.14 for the second.

Compared with U8A C12G C13U, G9A U11G C12G is higher in “aptazyme ON/OFF ratio” value: 1.24 for the first, 1.3 for the second.

First: U8C U10A U11A C12G C13U
Second: U7A U8C G9C U10G C13G
The “aptazyme ON/OFF ratio” value of the first is higher: 1.28 for the first, 1.09 for the second.

Compared with U7G G9U U11G C13G, G9U U10C U11A C12A is higher in “aptazyme ON/OFF ratio” value: 1.3 for the first, 1.47 for the second.

Compared with U7A U8A G9U U10A U11A C12G, U7C U8G G9C U11G C12A is lower in “aptazyme ON/OFF ratio” value: 1.23 for the first, 1.12 for the second.

First: U7C U8C G9A U10A C12G C13G
Second: U7C U8G U10G U11G C12U C13G
The “aptazyme ON/OFF ratio” value of the first is higher: 1.27 for the first, 1.26 for the second.

Going from U7C U8A U11C C12A C13A to U7C U10C U11A C12G C13U, the “aptazyme ON/OFF ratio” value falls from 1.29 to 1.15.

First: U7G U8C U10A U11A C12U C13A
Second: U7G U8C G9U U10G C13G
The “aptazyme ON/OFF ratio” value of the first is lower: 1.2 for the first, 1.27 for the second.

Going from U7G U8G G9U C12G C13A to U7G U8A U10C C13A, the “aptazyme ON/OFF ratio” value falls from 1.3 to 1.23.

Going from U7G U8C G9U U10A U11A C12A C13A to U7G U8C G9A C12G, the “aptazyme ON/OFF ratio” value falls from 1.29 to 1.07.

Compared with U7C U8A G9C U10A U11G C12G, U7A U8C G9C U10G U11A C12A C13A is lower in “aptazyme ON/OFF ratio” value: 1.31 for the first, 1.03 for the second.

First: U7C G9C U11A C12A
Second: U7A U8C G9U U10A U11A C12U C13A
The “aptazyme ON/OFF ratio” value of the first is lower: 1.07 for the first, 1.21 for the second.

First: U7A U8G G9U U10C U11A C12U C13A
Second: U7C U8G G9C U10G C12U C13U
The “aptazyme ON/OFF ratio” value of the first is higher: 1.41 for the first, 1.35 for the second.

Compared with U7C U8A U10G C12U C13U, U7C U8G G9U U11G is lower in “aptazyme ON/OFF ratio” value: 1.24 for the first, 1.2 for the second.

Compared with U7G U8G U10A U11A C12G C13A, U7A U8G U10C U11A C12A is higher in “aptazyme ON/OFF ratio” value: 1.22 for the first, 1.5 for the second.

Going from U8G G9C U10A U11G to G9C U10G C12A C13U, the “aptazyme ON/OFF ratio” value rises from 1.18 to 1.32.

Going from U7C U8G U10A U11G C13A to U7C U10A, the “aptazyme ON/OFF ratio” value rises from 1.11 to 1.12.

Compared with U7A U8G U10C U11C C12A C13G, U7A U8A G9C U10G U11C C12G is lower in “aptazyme ON/OFF ratio” value: 1.3 for the first, 1.27 for the second.

First: U8A G9A U10G U11A C12U
Second: U7C U10C U11G C13A
The “aptazyme ON/OFF ratio” value of the first is higher: 1.06 for the first, 0.947 for the second.

Compared with U7A U8A G9A U10C U11C, U8C C13A is higher in “aptazyme ON/OFF ratio” value: 1.03 for the first, 1.36 for the second.

Going from U8A G9C U11C C12G C13U to U7G U8G U10C C12G C13G, the “aptazyme ON/OFF ratio” value rises from 1.06 to 1.54.

First: G9C U11A C12A C13G
Second: G9A U11A C12G C13G
The “aptazyme ON/OFF ratio” value of the first is lower: 1.12 for the first, 1.2 for the second.

Compared with U7G G9C U10G U11G C13A, U7C U8G U11C C12U C13G is higher in “aptazyme ON/OFF ratio” value: 1.17 for the first, 1.19 for the second.

First: U7A U8A G9C U10G U11C C12U
Second: U7C U8G G9U U11C C13G
The “aptazyme ON/OFF ratio” value of the first is higher: 1.13 for the first, 1.02 for the second.

Going from U7C U8C G9U U10G U11A C12G C13A to U7G U8G G9U U10C C12A C13U, the “aptazyme ON/OFF ratio” value rises from 1.06 to 1.4.

Going from U7G U8A G9U U10C U11C to U7A G9C U10G U11C C12U C13U, the “aptazyme ON/OFF ratio” value rises from 1.06 to 1.09.

Going from U7A G9A C12G C13U to U7A G9A U10C U11C C12A C13G, the “aptazyme ON/OFF ratio” value falls from 1.17 to 1.08.

First: U7C U8C G9U U11C C13U
Second: U7G U8G U10G U11C C12A C13A
The “aptazyme ON/OFF ratio” value of the first is lower: 1.02 for the first, 1.53 for the second.

First: U7A U8C G9U U10G U11C C12U
Second: U7C G9U U10A U11C C12G
The “aptazyme ON/OFF ratio” value of the first is lower: 1.12 for the first, 1.43 for the second.

First: U7G U8G G9C U10A U11A C12G C13G
Second: U7C U8C U10G U11A C12A C13G
The “aptazyme ON/OFF ratio” value of the first is lower: 1.05 for the first, 1.12 for the second.

U8G G9U U10C U11C C13U and U7G U8A U10G U11C C12G are the same in “aptazyme ON/OFF ratio” value: 1.02 for the first, 1.02 for the second.

Going from U7C U8G U10A U11A C12A C13G to U7A U10G U11G C12A C13U, the “aptazyme ON/OFF ratio” value rises from 1.12 to 1.22.

Compared with U7A U8C G9C U11C, U8G G9U U10G U11G C12U C13G is higher in “aptazyme ON/OFF ratio” value: 1 for the first, 1.09 for the second.

Going from U7C U8G G9A U10C U11A C12U C13U to U7G U8G G9C U10G U11C C12U C13U, the “aptazyme ON/OFF ratio” value rises from 1.05 to 1.11.

Going from U8G G9C U10A U11C C12U C13U to U7G U8A U10C U11A C12A, the “aptazyme ON/OFF ratio” value rises from 1.02 to 1.32.

Compared with U7C U8G U11G C12U C13U, U7G U8A G9A U10C U11C is lower in “aptazyme ON/OFF ratio” value: 1.17 for the first, 1.06 for the second.

First: U7G U8G G9C U10C U11C C13U
Second: U7C U8A G9C U10C U11G C12G
The “aptazyme ON/OFF ratio” value of the first is lower: 1.07 for the first, 1.09 for the second.

First: U7C G9A U10C C12A C13G
Second: U7G U8G G9A U10A U11C C12A C13U
The “aptazyme ON/OFF ratio” value of the first is higher: 1.17 for the first, 1.09 for the second.

Going from U8A U10A U11G C13A to U7A G9U U10C U11G C12A, the “aptazyme ON/OFF ratio” value falls from 1.18 to 1.02.

Going from U7C U8A G9A U10A U11G C13A to U7A U8A G9A U10C U11A C12U C13A, the “aptazyme ON/OFF ratio” value falls from 1.16 to 1.1.

First: U8G G9U U11C C12U C13G
Second: U7C U8G U10A U11G C12U C13A
The “aptazyme ON/OFF ratio” value of the first is higher: 1.08 for the first, 1.07 for the second.

Going from U7C U10C U11C C13A to U7A U8G C12G C13A, the “aptazyme ON/OFF ratio” value rises from 1.07 to 1.38.

Going from G9A C13U to U7C U8A U10G U11C C12A, the “aptazyme ON/OFF ratio” value rises from 1.52 to 1.62.

Going from U8G G9C U10A U11G C12A to U7A G9A C13U, the “aptazyme ON/OFF ratio” value rises from 1.07 to 1.32.

Compared with U7C U8A U10C U11A C12A, U7A U8A G9A U10C U11G C12A C13U is lower in “aptazyme ON/OFF ratio” value: 1.27 for the first, 1.12 for the second.

Going from U7G U8A G9C U10A U11G C12A to U7C G9A U10A C12G C13G, the “aptazyme ON/OFF ratio” value rises from 1.02 to 1.18.

Compared with U7C U8C G9A U10G C13U, U7C U8C U10C is lower in “aptazyme ON/OFF ratio” value: 1.37 for the first, 1.26 for the second.

First: G9C U10G U11G C13A
Second: U8C G9U U10C U11G C12G C13G
The “aptazyme ON/OFF ratio” value of the first is lower: 1.09 for the first, 1.15 for the second.
